Laboratory results published in the supplement of paper PMC10567573.

B1: SLC6A17 (parent)
chain: HMFTPKLDKMLDPQVWREAATQVF

Variants of: B1
Experiment: protein stability index of a GFP-peptide fusion (GPS, HEK-293T) (PSI 1-6); higher = more stable
Conditions: c terminus: a fixed tail appended
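Also: lentivirally expressed fusions sorted by FACS into six bins by GFP to DsRed ratio, PSI derived from sequencing read proportions per bin multiplied by bin number.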

Point of comparison: HMFAPKLDKMLDPQVWREAATQVF [T4A], protein stability index 2.4. Against it:
- HMFTPCLDKMLDPQVWREAATQVF [K6C] — lower, 1.98
- HMFTPALDKMLDPQVWREAATQVF [K6A] — lower, 1.99
- HMFTPDLDKMLDPQVWREAATQVF [K6D] — higher, 2.67
- HMFTPELDKMLDPQVWREAATQVF [K6E] — lower, 1.74
- HMFTHKLDKMLDPQVWREAATQVF [P5H] — lower, 1.85
- HMFTKKLDKMLDPQVWREAATQVF [P5K] — lower, 1.69
- HMFTQKLDKMLDPQVWREAATQVF [P5Q] — higher, 2.49
- HMFTLKLDKMLDPQVWREAATQVF [P5L] — lower, 1.55
- HMFTTKLDKMLDPQVWREAATQVF [P5T] — lower, 1.53
- HMFTMKLDKMLDPQVWREAATQVF [P5M] — lower, 1.03
- HMFTDKLDKMLDPQVWREAATQVF [P5D] — higher, 2.61
- HMFTEKLDKMLDPQVWREAATQVF [P5E] — the same, 2.4
- HMFTSKLDKMLDPQVWREAATQVF [P5S] — lower, 2.09
- HMFTWKLDKMLDPQVWREAATQVF [P5W] — lower, 1.3
- HMFTYKLDKMLDPQVWREAATQVF [P5Y] — lower, 2.08
- HMFTIKLDKMLDPQVWREAATQVF [P5I] — higher, 3.2
- HMFTAKLDKMLDPQVWREAATQVF [P5A] — higher, 2.46
- HMFTCKLDKMLDPQVWREAATQVF [P5C] — lower, 1.53
- HMFTGKLDKMLDPQVWREAATQVF [P5G] — lower, 1.61
- HMFTRKLDKMLDPQVWREAATQVF [P5R] — lower, 1.78
- HMFTVKLDKMLDPQVWREAATQVF [P5V] — lower, 1.69
- YMFTPKLDKMLDPQVWREAATQVF [H1Y] — lower, 1.79
- DMFTPKLDKMLDPQVWREAATQVF [H1D] — lower, 2.3
- SMFTPKLDKMLDPQVWREAATQVF [H1S] — lower, 2.06
- MMFTPKLDKMLDPQVWREAATQVF [H1M] — higher, 2.74
- AMFTPKLDKMLDPQVWREAATQVF [H1A] — higher, 2.73
- CMFTPKLDKMLDPQVWREAATQVF [H1C] — lower, 1.56
- KMFTPKLDKMLDPQVWREAATQVF [H1K] — lower, 1.5
- PMFTPKLDKMLDPQVWREAATQVF [H1P] — higher, 2.72
- VMFTPKLDKMLDPQVWREAATQVF [H1V] — higher, 2.51
- FMFTPKLDKMLDPQVWREAATQVF [H1F] — lower, 2.13
- TMFTPKLDKMLDPQVWREAATQVF [H1T] — lower, 1.46
- EMFTPKLDKMLDPQVWREAATQVF [H1E] — lower, 2.17
- RMFTPKLDKMLDPQVWREAATQVF [H1R] — lower, 1.98
- NMFTPKLDKMLDPQVWREAATQVF [H1N] — lower, 1.56
- LMFTPKLDKMLDPQVWREAATQVF [H1L] — lower, 1.88
- GMFTPKLDKMLDPQVWREAATQVF [H1G] — lower, 1.79
- QMFTPKLDKMLDPQVWREAATQVF [H1Q] — lower, 2.29
- HMNTPKLDKMLDPQVWREAATQVF [F3N] — higher, 2.86
- HMVTPKLDKMLDPQVWREAATQVF [F3V] — higher, 2.7
- HMCTPKLDKMLDPQVWREAATQVF [F3C] — lower, 2.25
- HMETPKLDKMLDPQVWREAATQVF [F3E] — higher, 3.49
- HMWTPKLDKMLDPQVWREAATQVF [F3W] — lower, 2.07
- HMDTPKLDKMLDPQVWREAATQVF [F3D] — higher, 2.69
- HMHTPKLDKMLDPQVWREAATQVF [F3H] — lower, 2.17
- HMKTPKLDKMLDPQVWREAATQVF [F3K] — lower, 1.98
- HMITPKLDKMLDPQVWREAATQVF [F3I] — higher, 2.45
- HMRTPKLDKMLDPQVWREAATQVF [F3R] — the same, 2.4
- HMQTPKLDKMLDPQVWREAATQVF [F3Q] — lower, 2.17
- HMMTPKLDKMLDPQVWREAATQVF [F3M] — lower, 1.81
- HMTTPKLDKMLDPQVWREAATQVF [F3T] — lower, 2.01
- HMLTPKLDKMLDPQVWREAATQVF [F3L] — lower, 1.99
- HMYTPKLDKMLDPQVWREAATQVF [F3Y] — higher, 2.6
- HMPTPKLDKMLDPQVWREAATQVF [F3P] — higher, 2.65
- HMSTPKLDKMLDPQVWREAATQVF [F3S] — lower, 2.27
- HMGTPKLDKMLDPQVWREAATQVF [F3G] — lower, 1.91
- HMATPKLDKMLDPQVWREAATQVF [F3A] — lower, 2.2
- HSFTPKLDKMLDPQVWREAATQVF [M2S] — lower, 2.03
- HVFTPKLDKMLDPQVWREAATQVF [M2V] — lower, 1.62
- HTFTPKLDKMLDPQVWREAATQVF [M2T] — lower, 2.14
- HRFTPKLDKMLDPQVWREAATQVF [M2R] — higher, 2.56
- HLFTPKLDKMLDPQVWREAATQVF [M2L] — lower, 1.71
- HWFTPKLDKMLDPQVWREAATQVF [M2W] — lower, 1.81
- HGFTPKLDKMLDPQVWREAATQVF [M2G] — lower, 1.92
- HYFTPKLDKMLDPQVWREAATQVF [M2Y] — higher, 2.84
- HEFTPKLDKMLDPQVWREAATQVF [M2E] — higher, 2.49
- HQFTPKLDKMLDPQVWREAATQVF [M2Q] — higher, 2.52
- HDFTPKLDKMLDPQVWREAATQVF [M2D] — lower, 2.34
- HNFTPKLDKMLDPQVWREAATQVF [M2N] — higher, 2.43
- HKFTPKLDKMLDPQVWREAATQVF [M2K] — lower, 2.13
- HAFTPKLDKMLDPQVWREAATQVF [M2A] — lower, 1.9
- HIFTPKLDKMLDPQVWREAATQVF [M2I] — higher, 2.53
- HHFTPKLDKMLDPQVWREAATQVF [M2H] — higher, 2.49
- HPFTPKLDKMLDPQVWREAATQVF [M2P] — lower, 2.36
- HCFTPKLDKMLDPQVWREAATQVF [M2C] — lower, 2.01
- HFFTPKLDKMLDPQVWREAATQVF [M2F] — lower, 1.65
- HMFFPKLDKMLDPQVWREAATQVF [T4F] — lower, 1.9
- HMFGPKLDKMLDPQVWREAATQVF [T4G] — lower, 2.1
- HMFIPKLDKMLDPQVWREAATQVF [T4I] — lower, 1.45
- HMFWPKLDKMLDPQVWREAATQVF [T4W] — lower, 2.21
- HMFSPKLDKMLDPQVWREAATQVF [T4S] — higher, 2.67
- HMFPPKLDKMLDPQVWREAATQVF [T4P] — lower, 2.07
- HMFCPKLDKMLDPQVWREAATQVF [T4C] — higher, 2.49
- HMFEPKLDKMLDPQVWREAATQVF [T4E] — lower, 2.31
- HMFQPKLDKMLDPQVWREAATQVF [T4Q] — lower, 1.8
- HMFDPKLDKMLDPQVWREAATQVF [T4D] — lower, 1.76
- HMFHPKLDKMLDPQVWREAATQVF [T4H] — lower, 1.79
- HMFRPKLDKMLDPQVWREAATQVF [T4R] — lower, 2.39
- HMFYPKLDKMLDPQVWREAATQVF [T4Y] — lower, 2.11
- HMFKPKLDKMLDPQVWREAATQVF [T4K] — lower, 1.67
- HMFNPKLDKMLDPQVWREAATQVF [T4N] — lower, 1.39
- HMFMPKLDKMLDPQVWREAATQVF [T4M] — higher, 2.97
- HMFLPKLDKMLDPQVWREAATQVF [T4L] — higher, 2.69
